From US20140031294A1 (NOVOZYMES BIOPHARMA UK, published 2014)

Target: transferrin receptor on human erythroleukemic K562 cells (human, UniProt P02786 1-760)
Experiment: cell-based or functional assay

transferrin receptor on human erythroleukemic K562 cells, sequence (P02786 whole entry): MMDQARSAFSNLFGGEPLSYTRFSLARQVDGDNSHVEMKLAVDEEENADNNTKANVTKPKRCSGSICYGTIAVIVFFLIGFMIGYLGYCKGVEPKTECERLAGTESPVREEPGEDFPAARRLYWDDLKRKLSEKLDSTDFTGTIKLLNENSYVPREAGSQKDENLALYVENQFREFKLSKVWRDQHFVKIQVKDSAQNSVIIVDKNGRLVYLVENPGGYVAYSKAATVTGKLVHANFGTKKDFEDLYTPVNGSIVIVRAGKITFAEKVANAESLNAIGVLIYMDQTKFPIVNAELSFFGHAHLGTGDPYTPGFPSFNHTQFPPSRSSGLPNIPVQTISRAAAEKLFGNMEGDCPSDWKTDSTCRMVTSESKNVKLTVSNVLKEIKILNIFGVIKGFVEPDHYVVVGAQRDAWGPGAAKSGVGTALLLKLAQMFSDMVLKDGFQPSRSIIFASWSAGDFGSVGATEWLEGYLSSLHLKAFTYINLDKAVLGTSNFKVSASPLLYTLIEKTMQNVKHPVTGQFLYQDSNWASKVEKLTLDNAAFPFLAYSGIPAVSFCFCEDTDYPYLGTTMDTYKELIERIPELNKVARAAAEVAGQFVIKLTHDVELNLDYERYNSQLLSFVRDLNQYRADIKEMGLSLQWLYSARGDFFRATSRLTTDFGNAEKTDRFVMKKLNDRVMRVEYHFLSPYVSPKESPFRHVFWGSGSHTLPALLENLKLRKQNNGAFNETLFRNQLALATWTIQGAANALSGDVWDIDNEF

B1: recombinant transferrin (N413Q, N611Q) (ligand)
chain: VPDKTVRWCAVSEHEATKCQSFRDHMKSVIPSDGPSVACVKKASYLDCIRAIAANEADAVTLDAGLVYDAYLAPNNLKPVVAEFYGSKEDPQTFYYAVAVVKKDSGFQMNQLRGKKSCHTGLGRSAGWNIPIGLLYCDLPEPRKPLEKAVANFFSGSCAPCADGTDFPQLCQLCPGCGCSTLNQYFGYSGAFKCLKDGAGDVAFVKHSTIFENLANKADRDQYELLCLDNTRKPVDEYKDCHLAQVPSHTVVARSMGGKEDLIWELLNQAQEHFGKDKSKEFQLFSSPHGKDLLFKDSAHGFLKVPPRMDAKMYLGYEYVTAIRNLREGTCPEAPTDECKPVKWCALSHHERLKCDEWSVNSVGKIECVSAETTEDCIAKIMNGEADAMSLDGGFVYIAGKCGLVPVLAENYQKSDNCEDTPEAGYFAVAVVKKSASDLTWDNLKGKKSCHTAVGRTAGWNIPMGLLYNKINHCRFDEFFSEGCAPGSKKDSSLCKLCMGSGLNLCEPNNKEGYYGYTGAFRCLVEKGDVAFVKHQTVPQNTGGKNPDPWAKNLNEKDYELLCLDGTRKPVEEYANCHLARAPNHAVVTRKDKEACVHKILRQQQHLFGSQVTDCSGNFCLFRSETKDLLFRDDTVCLAKLHDRNTYEKYLGEEYVKAVGNLRKCSTSSLLEACTFRRP
For B1, the “Apparent Affinity (competition against 55Fe uptake from labelled plasma transferrin by K562 cells)” value was 123 nM.
